The supplement of paper PMC7877785
± gives the uncertainty stated by the source.

Experiment: self-splicing fitness, log relative to wild type (ln ratio); higher = more splicing; Tetrahymena group I intron in knt gene, E. coli kanamycin selection, DiMSum; sequences stand for … in CUCUCU…GGAGGGAAAAGUUAUCAGGCAUGCACCUGGUAGCUAGUCUUUAAACCAAUAGAUUGCAUCGGUUUAAAAGGCAAGACCGUCAAAUUGCGGGAAAGGGGUCAACAGCCGUUCAGUACCAAGUCUCAGGGGAAACUUUGAGAUGGCCUUGCAAAGGGUAUGGUAAUAAGCUGACGGACAUGGUCCUAACCACGCAGCCAAGUCCUAAGUCAACAGAUCUUCUGUUGAUAUGGAUGCAGUUCACAGACUAAAUGUCGGUCGGGGAAGAUGUAUUCUUCUCAUAAGAUAUAGUCGGACCUCUCCUUAAUGGGAGCUAGCGGAUGAAGUGAUGCAACACUGGAGCCGCUGGGAACUAAUUUGUAUGCGAAAGUAUAUUGAUUAGUUUUGGAGUACUCGUGGUCG
How it was run: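 Six replicate transformations of E. coli BL21(DE3) with a pET-22b(+) library were grown overnight at 37°C or 30°C. The library randomised all eight P1ex-region intron nucleotides, the intron lying in the knt kanamycin-resistance gene, and plates were LB agar with or without 25 μg/mL kanamycin plus 100 μg/mL carbenicillin, 50 μM IPTG and 0.2% rhamnose. Pooled colonies were amplicon-sequenced on an Illumina HiSeq 2500, and fitness is the DiMSum error-weighted combination of wild-type-normalised replicate fold changes, kanamycin versus none.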

Row | Sequence | self-splicing fitness (ln) (30 °C) | self-splicing fitness (ln) (37 °C)
1 | AGUGAGCAAUAUUACGAAGG | -3.45 ± 0.37 | -1.41 ± 0.38
2 | AGUGAGCAAUAUUACGAAUU | -3.18 ± 0.37 | -2.56 ± 0.33
3 | AGUGAGCAAUAUUACGAGUC | -4.15 ± 0.47 | -1.93 ± 0.18
4 | AGUGAGCAAUAUUACGCCAU | -2.58 ± 0.43 | -0.383 ± 0.35
5 | AGUGAGCAAUAUUACGCCCA | -3.28 ± 0.46 | -2.42 ± 0.37
6 | AGUGAGCAAUAUUACGCCCG | -2.27 ± 0.4 | –
7 | AGUGAGCAAUAUUACGCGAA | -2.36 ± 0.32 | -1.56 ± 0.29
8 | AGUGAGCAAUAUUACGCGCU | – | -1.83 ± 0.39
9 | AGUGAGCAAUAUUACGCUUC | -2.41 ± 0.25 | -2.7 ± 0.34
10 | AGUGAGCAAUAUUACGGAAG | -2.58 ± 0.25 | –
11 | AGUGAGCAAUAUUACGGCAC | -1.29 ± 0.17 | -1.01 ± 0.21
12 | AGUGAGCAAUAUUACGGCCU | -0.495 ± 0.13 | 0.416 ± 0.15
13 | AGUGAGCAAUAUUACGGCUA | -0.705 ± 0.24 | -1.38 ± 0.23
14 | AGUGAGCAAUAUUACGGUGC | -3.77 ± 0.27 | -1.91 ± 0.22
15 | AGUGAGCAAUAUUACGUACA | -1.72 ± 0.28 | -0.682 ± 0.36
16 | AGUGAGCAAUAUUACGUAUA | -2.18 ± 0.25 | -2.72 ± 0.27
17 | AGUGAGCAAUAUUACGUAUU | -3.27 ± 0.25 | -2.23 ± 0.31
18 | AGUGAGCAAUAUUACGUGAA | -3.3 ± 0.36 | -2.91 ± 0.19
19 | AGUGAGCAAUAUUACGUGCA | -2.06 ± 0.14 | -0.509 ± 0.13
20 | AGUGAGCAAUAUUACGUGGU | -3.64 ± 0.22 | -2.18 ± 0.23
21 | AGUGAGCAAUAUUACGUGUU | -4.67 ± 0.46 | -3.04 ± 0.25
22 | AGUUAGCAAUAUUACGACCG | -0.776 ± 0.093 | -0.166 ± 0.13
23 | AGUUAGCAAUAUUACGCAAA | – | -1.57 ± 0.29
24 | AGUUAGCAAUAUUACGCAGA | -2.06 ± 0.26 | -2.04 ± 0.26
25 | AGUUAGCAAUAUUACGCAGG | -2.31 ± 0.3 | -0.586 ± 0.29

Row | Sequence | self-splicing fitness (ln) (30 °C) | self-splicing fitness (ln) (37 °C)
26 | AGUUAGCAAUAUUACGCAGU | -2.38 ± 0.23 | -2.62 ± 0.31
27 | AGUUAGCAAUAUUACGCCUA | -1.11 ± 0.16 | -0.149 ± 0.13
28 | AGUUAGCAAUAUUACGCUCC | -1.45 ± 0.45 | -1.02 ± 0.33
29 | AGUUAGCAAUAUUACGCUUG | – | -1.83 ± 0.23
30 | AGUUAGCAAUAUUACGGACA | -0.912 ± 0.12 | 0.372 ± 0.13
31 | AGUUAGCAAUAUUACGGGGA | -1.84 ± 0.17 | -3.12 ± 0.19
32 | AGUUAGCAAUAUUACGGGUU | -1.38 ± 0.11 | -1.53 ± 0.15
33 | AGUUAGCAAUAUUACGGUCG | -0.622 ± 0.094 | -0.715 ± 0.14
34 | AGUUAGCAAUAUUACGUAAC | -4.54 ± 0.46 | -2.21 ± 0.24
35 | AGUUAGCAAUAUUACGUCAG | -3.99 ± 0.29 | -3.25 ± 0.19
36 | AGUUAGCAAUAUUACGUCGU | -2.35 ± 0.14 | -1.05 ± 0.14
37 | AGUUAGCAAUAUUACGUCUG | -1.43 ± 0.074 | -1.72 ± 0.11
38 | AUAAAGCAAUAUUACGAACA | 0.281 ± 0.085 | 0.425 ± 0.11
39 | AUAAAGCAAUAUUACGAAUC | -4.22 ± 0.42 | -1.31 ± 0.22
40 | AUAAAGCAAUAUUACGAAUG | -1.48 ± 0.1 | -0.422 ± 0.12
41 | AUAAAGCAAUAUUACGCAUU | -1.82 ± 0.086 | -0.523 ± 0.11
42 | AUAAAGCAAUAUUACGCCUA | -0.422 ± 0.091 | -0.286 ± 0.1
43 | AUAAAGCAAUAUUACGCGUC | -4.6 ± 0.46 | -2.73 ± 0.29
44 | AUAAAGCAAUAUUACGCUGU | -0.921 ± 0.09 | -0.246 ± 0.1
45 | AUAAAGCAAUAUUACGGAUG | -1.69 ± 0.072 | -0.844 ± 0.11
46 | AUAAAGCAAUAUUACGGGGU | -2.63 ± 0.16 | -1.99 ± 0.14
47 | AUAAAGCAAUAUUACGGUAA | -1.21 ± 0.077 | -0.709 ± 0.09
48 | AUAAAGCAAUAUUACGGUAC | -1.89 ± 0.11 | -2.6 ± 0.17
49 | AUAAAGCAAUAUUACGGUCG | 0.114 ± 0.059 | -0.114 ± 0.083
50 | AUAAAGCAAUAUUACGUCCG | -0.335 ± 0.11 | 0.106 ± 0.13

Row | Sequence | self-splicing fitness (ln) (30 °C) | self-splicing fitness (ln) (37 °C)
51 | AUAAAGCAAUAUUACGUCGA | -0.992 ± 0.068 | 0.858 ± 0.086
52 | AUAAAGCAAUAUUACGUUGG | -2.08 ± 0.11 | -2.15 ± 0.15
53 | AUACAGCAAUAUUACGAAUG | -2.16 ± 0.14 | -2.7 ± 0.19
54 | AUACAGCAAUAUUACGACUG | -1.52 ± 0.077 | -0.848 ± 0.097
55 | AUACAGCAAUAUUACGAUGC | -1.75 ± 0.11 | -1.17 ± 0.16
56 | AUACAGCAAUAUUACGCAAA | -2.45 ± 0.21 | -1.07 ± 0.18
57 | AUACAGCAAUAUUACGCACC | -1.21 ± 0.086 | -1.05 ± 0.1
58 | AUACAGCAAUAUUACGCCAA | -2.6 ± 0.19 | -1.22 ± 0.18
59 | AUACAGCAAUAUUACGCGUG | -0.923 ± 0.063 | -0.481 ± 0.082
60 | AUACAGCAAUAUUACGCUCA | -0.776 ± 0.069 | 0.318 ± 0.086
61 | AUACAGCAAUAUUACGGACA | -1.55 ± 0.13 | -0.413 ± 0.13
62 | AUACAGCAAUAUUACGGCGU | -0.145 ± 0.065 | 0.665 ± 0.076
63 | AUACAGCAAUAUUACGGUCU | 0.331 ± 0.06 | -0.16 ± 0.064
64 | AUACAGCAAUAUUACGGUUA | -0.52 ± 0.069 | -0.372 ± 0.071
65 | AUACAGCAAUAUUACGUCAG | -3.05 ± 0.13 | -1.23 ± 0.13
66 | AUACAGCAAUAUUACGUUAC | -3.94 ± 0.25 | -2.79 ± 0.27
67 | AUACAGCAAUAUUACGUUGU | -2.77 ± 0.098 | -2.81 ± 0.13
68 | AUAGAGCAAUAUUACGAAAU | -0.572 ± 0.1 | 0.0653 ± 0.13
69 | AUAGAGCAAUAUUACGAACA | -1.9 ± 0.16 | -1.09 ± 0.25
70 | AUAGAGCAAUAUUACGAACC | -2.16 ± 0.14 | -1.02 ± 0.14
71 | AUAGAGCAAUAUUACGAGCA | -2.57 ± 0.19 | -0.949 ± 0.2
72 | AUAGAGCAAUAUUACGAGGU | -3.58 ± 0.44 | -2.94 ± 0.27
73 | AUAGAGCAAUAUUACGAGUA | -3.77 ± 0.33 | -2.52 ± 0.28
74 | AUAGAGCAAUAUUACGAUAG | -3.43 ± 0.34 | -1.62 ± 0.23
75 | AUAGAGCAAUAUUACGAUCC | -3.08 ± 0.33 | -2.18 ± 0.36

Row | Sequence | self-splicing fitness (ln) (30 °C) | self-splicing fitness (ln) (37 °C)
76 | AUAGAGCAAUAUUACGAUUA | -2.45 ± 0.21 | -0.158 ± 0.17
77 | AUAGAGCAAUAUUACGCACG | -1.57 ± 0.18 | -0.997 ± 0.23
78 | AUAGAGCAAUAUUACGCCAU | -2.25 ± 0.18 | -1.66 ± 0.27
79 | AUAGAGCAAUAUUACGCCCU | -0.756 ± 0.19 | -0.622 ± 0.37
80 | AUAGAGCAAUAUUACGCCGA | -1.81 ± 0.19 | -0.0699 ± 0.32
81 | AUAGAGCAAUAUUACGCCGC | – | -2.75 ± 0.44
82 | AUAGAGCAAUAUUACGCUCA | -0.0598 ± 0.076 | 0.193 ± 0.12
83 | AUAGAGCAAUAUUACGGAGU | -0.705 ± 0.093 | -1.03 ± 0.14
84 | AUAGAGCAAUAUUACGGCCA | -1.25 ± 0.15 | -1.02 ± 0.24
85 | AUAGAGCAAUAUUACGUACU | -0.65 ± 0.12 | 0.124 ± 0.14
86 | AUAGAGCAAUAUUACGUCCG | -2.71 ± 0.23 | -3.65 ± 0.34
87 | AUAGAGCAAUAUUACGUCCU | -1.42 ± 0.093 | -0.577 ± 0.14
88 | AUAGAGCAAUAUUACGUGCG | -1.6 ± 0.11 | -0.384 ± 0.11
89 | AUAGAGCAAUAUUACGUUCG | -0.386 ± 0.077 | -0.257 ± 0.092
90 | AUAUAGCAAUAUUACGACAU | 0.126 ± 0.014 | 0.224 ± 0.033
91 | AUAUAGCAAUAUUACGACGA | -1.1 ± 0.22 | -0.564 ± 0.28
92 | AUAUAGCAAUAUUACGAGAG | – | -2.29 ± 0.22
93 | AUAUAGCAAUAUUACGAGAU | -3.01 ± 0.14 | -0.91 ± 0.13
94 | AUAUAGCAAUAUUACGAGCG | -2.19 ± 0.17 | -0.66 ± 0.16
95 | AUAUAGCAAUAUUACGAGGC | -2.74 ± 0.26 | –
96 | AUAUAGCAAUAUUACGAGUC | -2.97 ± 0.34 | -2.63 ± 0.45
97 | AUAUAGCAAUAUUACGCAGU | -2.86 ± 0.25 | -3.1 ± 0.33
